Blank lines part the entries; values can stand above or below the substance they belong to.
Legend:
Test in all cases: SEC; HiLoad 26/60 Superdex 75 prep grade column; buffer B (20 mM MES, 50 mM NaCl, 10 mM CaCl2, pH 7.0); oligomeric state of each purified S100A4 protein in solution
[1] = target: recombinant wild-type S100A4 (UniProt P26447)
[2] = target: S100A4 C-terminal Ca2+ binding site mutant N65I/D67A (UniProt P26447)
[3] = target: S100A4 N-terminal Ca2+-binding site mutant E23A/D25A (UniProt P26447)

stoichiometry N [1]: 2
Substance: recombinant wild-type S100A4 (from UniProt P26447 1-101) (natural protein)

stoichiometry N [2]: 2
Substance: S100A4 C-terminal Ca2+ binding site mutant N65I/D67A (from UniProt P26447 1-101) (natural protein)

stoichiometry N [3]: 2
Substance: S100A4 N-terminal Ca2+-binding site mutant E23A/D25A (from UniProt P26447 1-101) (natural protein)

Reference: article PMC5346689
